Results: patent publication US20090130692A1

Biological target: bovine pancreatic trypsin (bovine) (UniProt P00760)
Assay: inhibition of bovine trypsin, substrate Boc-Leu-Gly-Arg-pNA, tight-binding fit (Morrison); apparent Ki (Kiapp)

Sequence of bovine pancreatic trypsin (bovine) (P00760 24-246): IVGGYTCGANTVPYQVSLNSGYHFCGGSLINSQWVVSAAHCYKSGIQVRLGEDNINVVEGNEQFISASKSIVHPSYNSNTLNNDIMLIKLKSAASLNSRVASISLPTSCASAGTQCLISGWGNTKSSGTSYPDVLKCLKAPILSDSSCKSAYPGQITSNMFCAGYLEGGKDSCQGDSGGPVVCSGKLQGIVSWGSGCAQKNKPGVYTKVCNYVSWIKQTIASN

Ki [nM] | Substance
9 | barnase′-EETI-II fusion protein (from UniProt P00648 48-157)
71 | barnase′-McoEeTI fusion protein (from UniProt P00648 48-157)
